{
  "source": "paper PMC3466315",
  "about": "“Influence of PAS Domain Flanking Regions on Oligomerisation and Redox Signalling By NifL” (PLoS ONE, 2012)",
  "proteins": {"B1": {"name": "NifL 1-162 PAS1 construct after removal of the first 20 residues (domain or fragment, Azotobacter vinelandii, UniProt P30663 21-162, looked up)", "chain": "ELLPEIFRQTVEHAPIAISITDLKANILYANRAFRTITGYGSEEVLGKNESILSNGTTPRLVYQALWGRLAQKKPWSGVLVNRRKDKTLYLAELTVAPVLNEAGETIYYLGMHRDTSELHELEQRVNNQRLMIEAVVNAAPA", "notes": "NifL, Azotobacter vinelandii; the 1-162 construct without its first 20 residues; The limits are worked out from 'removal of the first 20 residues' of the 1-162 construct; source: E. coli BL21(DE3)pLysS, purified"}, "B2": {"name": "NifL PAS1 construct with the N-terminal region and the C-terminal linker helix, residues 1-162 (domain or fragment, Azotobacter vinelandii, UniProt P30663 1-162, looked up)", "chain": "MTPANPTLSNEPQAPHAESDELLPEIFRQTVEHAPIAISITDLKANILYANRAFRTITGYGSEEVLGKNESILSNGTTPRLVYQALWGRLAQKKPWSGVLVNRRKDKTLYLAELTVAPVLNEAGETIYYLGMHRDTSELHELEQRVNNQRLMIEAVVNAAPA", "notes": "NifL, Azotobacter vinelandii, residues 1-162 (PAS1 with both flanking regions); PAS1 carries an FAD cofactor; also called NifL(1-162); 1-162 construct; source: E. coli BL21(DE3)pLysS, purified"}, "B3": {"name": "NifL(1-162) ΔL151 (domain or fragment, Azotobacter vinelandii, UniProt P30663 1-162, looked up)", "chain": "MTPANPTLSNEPQAPHAESDELLPEIFRQTVEHAPIAISITDLKANILYANRAFRTITGYGSEEVLGKNESILSNGTTPRLVYQALWGRLAQKKPWSGVLVNRRKDKTLYLAELTVAPVLNEAGETIYYLGMHRDTSELHELEQRVNNQRMIEAVVNAAPA", "notes": "NifL, Azotobacter vinelandii, residues 1-162 with L151 of the linker helix deleted; source: E. coli BL21(DE3)pLysS, purified"}, "B4": {"name": "NifL PAS1 domain construct, residues 21-140 (domain or fragment, Azotobacter vinelandii, UniProt P30663 21-140, looked up)", "chain": "ELLPEIFRQTVEHAPIAISITDLKANILYANRAFRTITGYGSEEVLGKNESILSNGTTPRLVYQALWGRLAQKKPWSGVLVNRRKDKTLYLAELTVAPVLNEAGETIYYLGMHRDTSELH", "notes": "NifL, Azotobacter vinelandii, residues 21-140; also called construct lacking the entire N-terminal extension; source: E. coli BL21(DE3)pLysS, purified; not shown: hexa-histidine-containing tag (26 additional residues, from the vector pETNdeM-11), N-terminal, kept"}, "B5": {"name": "NifL PAS1 domain construct, residues 1-140 (domain or fragment, Azotobacter vinelandii, UniProt P30663 1-140, looked up)", "chain": "MTPANPTLSNEPQAPHAESDELLPEIFRQTVEHAPIAISITDLKANILYANRAFRTITGYGSEEVLGKNESILSNGTTPRLVYQALWGRLAQKKPWSGVLVNRRKDKTLYLAELTVAPVLNEAGETIYYLGMHRDTSELH", "notes": "NifL, Azotobacter vinelandii, residues 1-140 (PAS1 domain with the N-terminal flanking region, without the C-terminal linker helix); PAS1 carries an FAD cofactor; also called NifL(1-140); 1-140 PAS1 domain construct; source: E. coli BL21(DE3)pLysS, purified; not shown: hexa-histidine-containing tag (26 additional residues, from the vector pETNdeM-11), N-terminal, kept"}, "B6": {"name": "NifL(1-162) ΔN147-L151 (domain or fragment, Azotobacter vinelandii, UniProt P30663 1-162, looked up)", "chain": "MTPANPTLSNEPQAPHAESDELLPEIFRQTVEHAPIAISITDLKANILYANRAFRTITGYGSEEVLGKNESILSNGTTPRLVYQALWGRLAQKKPWSGVLVNRRKDKTLYLAELTVAPVLNEAGETIYYLGMHRDTSELHELEQRVMIEAVVNAAPA", "notes": "NifL, Azotobacter vinelandii, residues 1-162 with N147-L151 of the linker helix deleted; also called construct lacking residues N147-L151; source: E. coli BL21(DE3)pLysS, purified"}, "B7": {"name": "NifL(1-162) ΔR150-L151 (domain or fragment, Azotobacter vinelandii, UniProt P30663 1-162, looked up)", "chain": "MTPANPTLSNEPQAPHAESDELLPEIFRQTVEHAPIAISITDLKANILYANRAFRTITGYGSEEVLGKNESILSNGTTPRLVYQALWGRLAQKKPWSGVLVNRRKDKTLYLAELTVAPVLNEAGETIYYLGMHRDTSELHELEQRVNNQMIEAVVNAAPA", "notes": "NifL, Azotobacter vinelandii, residues 1-162 with R150-L151 of the linker helix deleted; source: E. coli BL21(DE3)pLysS, purified"}},
  "key": {"[1]": {"target": "the molecule itself", "assay": "SEC; Superose 12 10/300 GL, 0.5 ml/min, 50 mM Tris-HCl, 10% v/v glycerol, 200 mM NaCl, pH 8.0; 1-162 constructs of Table S1, protein concentration not given; self-association"}, "[2]": {"target": "the molecule itself", "assay": "SEC; Superose 12 10/300 GL, 0.5 ml/min, 50 mM Tris-HCl, 10% v/v glycerol, 200 mM NaCl, pH 8.0; 1-162 constructs at the highest injected concentration, 424 µM; self-association"}, "[3]": {"target": "the molecule itself", "assay": "SEC; Superose 12 10/300 GL, 0.5 ml/min, 50 mM Tris-HCl, 10% v/v glycerol, 200 mM NaCl, pH 8.0; 1-162 constructs at five different protein concentrations; self-association, dimer-tetramer equilibrium"}, "[4]": {"target": "the molecule itself", "assay": "SEC; Superose 12 10/300 GL, 0.5 ml/min, 50 mM Tris-HCl, 10% v/v glycerol, 200 mM NaCl, pH 8.0; protein at 106 µM (in monomeric terms); 1-140 constructs; self-association"}},
  "data": [
    {"protein": "B1", "values": [
      {"measurement": "stoichiometry N", "setting": "[1]", "value": 2}
    ]},
    {"protein": "B2", "values": [
      {"measurement": "stoichiometry N", "setting": "[2]", "value": 2.8, "unit": "monomers"},
      {"measurement": "stoichiometry N", "setting": "[1]", "value": 2.5, "unit": "monomers"},
      {"measurement": "stoichiometry N", "setting": "[3]", "value": "~2"}
    ]},
    {"protein": "B3", "values": [
      {"measurement": "binding result", "setting": "[3]", "value": "binds"}
    ]},
    {"protein": "B4", "values": [
      {"measurement": "stoichiometry N", "setting": "[4]", "value": 2}
    ]},
    {"protein": "B5", "values": [
      {"measurement": "stoichiometry N", "setting": "[4]", "value": "~4"}
    ]},
    {"protein": "B6", "values": [
      {"measurement": "stoichiometry N", "setting": "[2]", "value": 3.6, "unit": "monomers"}
    ]},
    {"protein": "B7", "values": [
      {"measurement": "binding result", "setting": "[3]", "value": "binds"}
    ]}
  ]
}
